From patent US20170174740A1 come the findings set out here.

Experiment [1] concerns the target syntaxin (SNARE protein; expressed from a plasmid in CHO cells for co-immunoprecipitation). Put plainly: co-immunoprecipitation with anti-syntaxin from CHO cells expressing syntaxin and Kv2.1 with C1a441-472 co-expressed as competitor; the ratio is Kv2.1 pulled down with syntaxin; mean±SEM, n=3.
The target is the same in experiment [2]. In words: co-immunoprecipitation with anti-syntaxin from CHO cells expressing syntaxin and Kv2.1, no C1a segment; mean±SEM, n=3.

syntaxin (SNARE protein; expressed from a plasmid in CHO cells for co-immunoprecipitation), sequence (Q16623 whole entry): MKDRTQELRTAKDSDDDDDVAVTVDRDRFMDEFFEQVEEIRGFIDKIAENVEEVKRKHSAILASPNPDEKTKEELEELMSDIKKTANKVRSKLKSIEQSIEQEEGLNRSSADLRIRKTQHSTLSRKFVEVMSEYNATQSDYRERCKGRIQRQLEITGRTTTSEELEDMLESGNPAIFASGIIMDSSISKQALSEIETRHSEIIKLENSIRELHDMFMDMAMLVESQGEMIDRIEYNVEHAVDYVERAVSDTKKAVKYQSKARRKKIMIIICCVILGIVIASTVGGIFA

Consider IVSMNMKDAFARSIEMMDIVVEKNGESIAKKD [C1a441-472 (overlapping middle segment of C1a)], for which the ratio of Kv2.1 to syntaxin immunoblots in experiment [1] stood at 0.25.

B1: Kv2.1 (wild-type voltage-dependent delayed-rectifier K+ channel, expressed in CHO cells) (protein)
chain: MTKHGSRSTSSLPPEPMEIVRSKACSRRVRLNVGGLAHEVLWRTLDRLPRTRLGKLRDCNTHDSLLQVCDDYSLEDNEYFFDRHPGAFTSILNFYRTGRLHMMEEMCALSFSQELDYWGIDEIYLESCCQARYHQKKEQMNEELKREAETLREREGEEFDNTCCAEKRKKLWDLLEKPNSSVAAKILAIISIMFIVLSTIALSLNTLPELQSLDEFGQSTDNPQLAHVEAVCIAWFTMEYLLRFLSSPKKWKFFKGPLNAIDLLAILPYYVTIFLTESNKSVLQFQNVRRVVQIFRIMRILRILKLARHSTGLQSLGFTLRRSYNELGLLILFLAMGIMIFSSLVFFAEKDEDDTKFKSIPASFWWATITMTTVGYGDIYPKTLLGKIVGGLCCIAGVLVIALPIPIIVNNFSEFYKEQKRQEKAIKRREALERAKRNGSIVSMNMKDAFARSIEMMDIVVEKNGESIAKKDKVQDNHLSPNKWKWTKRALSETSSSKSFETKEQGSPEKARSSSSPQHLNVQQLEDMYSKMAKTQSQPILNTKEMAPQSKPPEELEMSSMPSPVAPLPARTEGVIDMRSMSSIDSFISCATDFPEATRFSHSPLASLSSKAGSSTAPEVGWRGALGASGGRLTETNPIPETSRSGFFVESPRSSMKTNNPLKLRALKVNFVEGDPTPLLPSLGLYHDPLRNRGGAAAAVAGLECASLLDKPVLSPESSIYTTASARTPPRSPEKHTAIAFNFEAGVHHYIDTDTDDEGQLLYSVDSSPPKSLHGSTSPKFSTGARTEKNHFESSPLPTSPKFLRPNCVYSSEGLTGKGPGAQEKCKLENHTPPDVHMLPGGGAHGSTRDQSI
With B1, the ratio of Kv2.1 to syntaxin immunoblots in experiment [2] stood at 0.24.
